The results in this text go back to paper PMC7736295 (Cell Discovery, 2020).

Numbering of substitutions follows the chain as printed. Numbers in names are those of the source.

The labels stand for the following.
B1: Mint1-CID (residues 338-397) (domain or fragment, UniProt O35430 338-397, looked up)
chain: QRYSKEKRDAISLAIKDIKEAIEEVKTRTIRSPYTPDEPKEPIWVMRQDISPTRDCDDQR
notes: also called the entire CID; the whole CID; source: E. coli BL21 (DE3), purified (Ni2+-Sepharose, size-exclusion chromatography); not shown: Trx, N-terminal, cleaved; His6, N-terminal, cleaved
B2: Mint1-CID (residues 338-397) W381A (domain or fragment, UniProt O35430 338-397, looked up)
chain: B1 chain with W44A
notes: Mint1-CID residues 338-397 with W381A; Probably made as the wild-type fragment (E. coli, Trx-His6 tag removed); also called the C-CID W381A mutation; source: recombinant protein
B3: Mint1-CID (residues 338-397) I352A I355A I359A (domain or fragment, UniProt O35430 338-397, looked up)
chain: B1 chain with I15A, I18A, I22A
notes: Mint1-CID residues 338-397 with I352A, I355A and I359A; Probably made as the wild-type fragment (E. coli, Trx-His6 tag removed); also called the mutations in the N-CID; source: recombinant protein
B4: Mint1-C-CID (residues 371-397) (domain or fragment, UniProt O35430 371-397, looked up)
chain: YTPDEPKEPIWVMRQDISPTRDCDDQR
notes: C-terminal half of the CID of Mint1, residues 371-397; source: E. coli BL21 (DE3), purified (Ni2+-Sepharose, size-exclusion chromatography); not shown: Trx, N-terminal, cleaved; His6, N-terminal, cleaved
B5: CASK-CaMK (residues 1-337) (domain or fragment)
chain: MADDDVLFEDVYELCEVIGKGPFSVVRRCINRETGQQFAVKIVDVAKFTSSPGLSTEDLKREASICHMLKHPHIVELLETYSSDGMLYMVFEFMDGADLCFEIVKRADAGFVYSEAVASHYMRQILEALRYCHDNNIIHRDVKPHCVLLASKENSAPVKLGGFGVAIQLGESGLVAGGRVGTPHFMAPEVVKREPYGKPVDVWGCGVILFILLSGCLPFYGTKERLFEGIIKGKYKMNPRQWSHISESAKDLVRRMLMLDPAERITVYEALNHPWLKERDRYAYKIHLPETVEQLRKFNARRKLKGAVLAAVSSHKFNSFYGDPPEELPDFSEDPTS

For assay [1], the target named is T1, CASK-CaMK (residues 1-319) (UniProt Q62915 1-319).
T1 chain: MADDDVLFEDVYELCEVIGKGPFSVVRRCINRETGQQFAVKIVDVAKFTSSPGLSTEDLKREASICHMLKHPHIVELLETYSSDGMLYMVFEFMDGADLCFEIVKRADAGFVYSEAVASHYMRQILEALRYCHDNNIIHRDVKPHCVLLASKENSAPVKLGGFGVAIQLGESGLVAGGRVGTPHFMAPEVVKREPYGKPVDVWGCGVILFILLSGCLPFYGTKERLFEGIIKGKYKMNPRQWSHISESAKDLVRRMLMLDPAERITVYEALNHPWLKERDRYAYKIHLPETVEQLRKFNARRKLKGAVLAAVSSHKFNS
Nature of the assay: ITC. Background: Isothermal titration calorimetry measures the heat released or taken up as one component is titrated into another.

Assay [2] has as its target T2, CASK-CaMK (residues 1-301) (UniProt Q62915 1-301).
T2 chain: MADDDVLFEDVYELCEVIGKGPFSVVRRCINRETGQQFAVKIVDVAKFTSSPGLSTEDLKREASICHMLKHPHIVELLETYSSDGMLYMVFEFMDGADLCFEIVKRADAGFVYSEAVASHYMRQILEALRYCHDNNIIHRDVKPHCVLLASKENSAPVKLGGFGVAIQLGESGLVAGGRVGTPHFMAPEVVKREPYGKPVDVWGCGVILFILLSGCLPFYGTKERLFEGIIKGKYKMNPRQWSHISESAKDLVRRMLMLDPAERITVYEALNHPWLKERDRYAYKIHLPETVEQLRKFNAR
Put plainly: ITC.

Assay [3] addresses B5. Put plainly: ITC.
The target in assay [4] is T3, CASK-CaMK (residues 1-337) (UniProt Q62915 1-337).
T3 construct: CaMK domain of CASK, residues 1-337; also called CASK(residues 1-337); source: E. coli BL21 (DE3), purified (Ni2+-Sepharose, size-exclusion chromatography); not shown: Trx, N-terminal, cleaved; His6, N-terminal, cleaved
T3 sequence (looked up): B5 chain
Nature of the assay: ITC; MicroCalorimeter ITC200, 25 °C; Mint1 fragments and mutants injected into CASK-CaMK in the cell; repeated three times. Conditions: both partners purified.

Assay [5] concerns the target T4, Mint1-CID (residues 338-397) I352A I355A I359A (UniProt O35430 338-397, I352A | I355A | I359A).
T4 sequence: B1 chain with I15A, I18A, I22A
Put plainly: ITC.

As a reminder, the Kd is the concentration at which binding is half-saturated. As for B1, the Kd in assay [1] was 30 nM; in assay [2], 42 nM; in assay [3], 17 nM; in assay [4], roughly 20 nM. As to B2, the Kd in assay [4] is roughly 55000 nM. On to B3, for which the “fold reduction of the binding affinity against the wild-type CID” value in assay [4] was roughly 15 fold. B4: the dissociation constant (Kd) in assay [4] was roughly 500 nM. In assay [5], B5 returned a dissociation constant Kd of 270 nM.
